Results: paper PMC8497999 (iScience, 2021)

Experiments:
Experiment in all cases: SEC
[1] = target: T1, ACAD9 (non-tagged wild type) (human, UniProt Q9H845 38-621)
T1 sequence: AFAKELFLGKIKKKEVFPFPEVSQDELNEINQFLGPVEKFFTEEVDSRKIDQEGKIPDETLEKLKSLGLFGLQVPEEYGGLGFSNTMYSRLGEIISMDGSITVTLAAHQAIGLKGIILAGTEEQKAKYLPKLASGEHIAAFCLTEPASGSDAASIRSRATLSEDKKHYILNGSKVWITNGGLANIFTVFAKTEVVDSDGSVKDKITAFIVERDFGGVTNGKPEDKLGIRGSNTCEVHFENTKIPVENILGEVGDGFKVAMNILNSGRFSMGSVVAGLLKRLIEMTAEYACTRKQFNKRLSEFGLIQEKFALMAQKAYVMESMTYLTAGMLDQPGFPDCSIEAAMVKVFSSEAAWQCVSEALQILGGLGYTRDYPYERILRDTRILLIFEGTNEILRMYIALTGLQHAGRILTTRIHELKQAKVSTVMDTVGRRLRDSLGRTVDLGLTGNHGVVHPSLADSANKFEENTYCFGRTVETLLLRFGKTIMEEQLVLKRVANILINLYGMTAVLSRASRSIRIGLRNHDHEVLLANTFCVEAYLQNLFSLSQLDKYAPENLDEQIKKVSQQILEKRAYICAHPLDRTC

ACAD9-His6 R518H = target: T2, ACAD9-His6 R518H (human, UniProt Q9H845 38-621, R518H)
T2 sequence: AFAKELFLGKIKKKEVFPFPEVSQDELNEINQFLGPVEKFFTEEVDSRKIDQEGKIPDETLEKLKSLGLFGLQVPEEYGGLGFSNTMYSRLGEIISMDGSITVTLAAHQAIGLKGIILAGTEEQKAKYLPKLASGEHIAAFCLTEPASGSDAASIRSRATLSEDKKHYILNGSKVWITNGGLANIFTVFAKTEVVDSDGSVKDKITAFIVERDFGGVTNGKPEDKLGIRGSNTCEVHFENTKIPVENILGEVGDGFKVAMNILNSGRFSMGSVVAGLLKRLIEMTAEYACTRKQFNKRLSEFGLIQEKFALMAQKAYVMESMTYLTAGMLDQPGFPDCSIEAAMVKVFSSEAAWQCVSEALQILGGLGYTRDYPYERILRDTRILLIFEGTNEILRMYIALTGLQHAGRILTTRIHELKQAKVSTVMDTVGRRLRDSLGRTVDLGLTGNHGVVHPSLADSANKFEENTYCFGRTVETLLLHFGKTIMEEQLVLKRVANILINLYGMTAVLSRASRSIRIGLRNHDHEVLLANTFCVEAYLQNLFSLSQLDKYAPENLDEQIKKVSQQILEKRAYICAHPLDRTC

ACAD9-His6 R469W = target: T3, ACAD9-His6 R469W (human, UniProt Q9H845 38-621, R469W)
T3 sequence: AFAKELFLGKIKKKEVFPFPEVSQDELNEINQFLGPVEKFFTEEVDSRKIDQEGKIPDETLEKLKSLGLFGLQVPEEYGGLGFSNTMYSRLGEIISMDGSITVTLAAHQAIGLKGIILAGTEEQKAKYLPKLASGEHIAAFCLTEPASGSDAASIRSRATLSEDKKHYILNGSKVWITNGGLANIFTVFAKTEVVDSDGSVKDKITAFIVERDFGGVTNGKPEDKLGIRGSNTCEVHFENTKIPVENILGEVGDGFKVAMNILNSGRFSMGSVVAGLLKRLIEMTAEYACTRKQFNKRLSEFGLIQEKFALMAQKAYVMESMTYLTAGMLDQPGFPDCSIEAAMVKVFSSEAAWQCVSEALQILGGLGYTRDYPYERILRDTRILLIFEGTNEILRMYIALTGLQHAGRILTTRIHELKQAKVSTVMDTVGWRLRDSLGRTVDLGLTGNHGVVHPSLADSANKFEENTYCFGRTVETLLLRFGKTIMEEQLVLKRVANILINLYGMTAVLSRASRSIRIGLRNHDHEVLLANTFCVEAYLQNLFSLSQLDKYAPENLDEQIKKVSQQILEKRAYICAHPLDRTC

B1: His6-ECSIT (mature human mitochondrial ECSIT with N-terminal His tag) (natural protein)
chain: SSEQSLVPSPPEPRQRPTKALVPFEDLFGQAPGGERDKASFLQTVQKFAEHSVRKRGHIDFIYLALRKMREYGVERDLAVYNQLLNIFPKEVFRPRNIIQRIFVHYPRQQECGIAVLEQMENHGVMPNKETEFLLIQIFGRKSYPMLKLVRLKLWFPRFMNVNPFPVPRDLPQDPVELAMFGLRHMEPDLSARVTIYQVPLPKDSTGAADPPQPHIVGIQSPDQQAALARHNPARPVFVEGPFSLWLRNKCVYYHILRADLLPPEEREVEETPEEWNLYYPMQLDLEYVRSGWDNYEFDINEVEEGPVFAMCMAGAHDQATMAKWIQGLQETNPTLAQIPVVFRLAGSTRELQTSSAGLEEPPLPEDHQEEDDNLQRQQQGQS
Question: B1 was tested. Which “stoichiometry N” value [1] did it give?
Answer: 1 ECSIT monomer per ACAD9 monomer (2:2)

Question: Does B1 bind (ACAD9-His6 R518H)?
Answer: binds

Question: Does B1 bind (ACAD9-His6 R469W)?
Answer: binds
